This data set is described as follows: soluble on expression in E. coli; label from the status in PepcDB or PDB records.
In the case of “MGSDKIHHHHHHMINRKFINTVLAKRSTRSGLCQSATRTSRWLAVAIAILLANNSHADTSQTNVAAPAKTSACYLDGLDEQLQCGKITVLENPQLPDGKQIDIHFAILPAIKNTHPNEALLAIAGGPGQSAIENAAFFNRMLTKVRQQRDILLIDQRGTGKSNILSCDDDTTELLSMNDDDLDIIAMTEKCLGQIDADVSQYGSNTALTDFEAVREYLGYQKLHLYGISYGTRMAQLYMRHYPEALLTVTLDGVVPMQQSVVAIGDSIERGLNVLWRDCKSTPACQQQFPDLADEYNKVDQLLATAPISQQVRDPQTDELSEFLLTRSKFSGAIRMAMYMANIRALIPHAIHQAAQGNYQPILGIYTLTADSTGIAMGMHASVVCGEDIHRITDQMRKDAKESYISGNMLEGLEKTCQAWPIPQVDDNFSEPILSDIPTLLLSGELDPATPPNWGALAQEKLTKSKHFIAPYATHGVAGQSCGNDLVAQLVDQGSVKDINGECLQKDVRRSFYLNANTVEALPVIDTPTDIETTAPANTAADKE”, the “soluble on expression in E. coli” value was “not soluble”.

As for “MSSAQRVVITPGEPAGSGPDLVVQLAQRAWPIELVVCADGALLTERAAMLGLPLSLLPYSPDVPAAPQPAGTLTLLPVSLRAPAISGQLTVENGPYVVETLARACDGCLNGEFAALITGPVHKGVINDAGISFTGHTEFFEERSQAKKVVMMLATEELRVALATTHLPLRAIADAITPALLHEVIAILHHDLRTKFGIAEPRILVCGLNPHAGEGGHMGTEEIDTIIPVLDELRAQGMKLNGPLPADTLFQPKYLDNADAVLAMYHDQGLPVLKYQGFGRGVNITLGLPFIRTSVDHGTALELAGRGKADVGSFITALNLAIKMIVNTQ”, the “soluble on expression in E. coli” value is recorded as “soluble”.

In the case of “MAEIRVGTASWTDPTLLASGWYPPGVRNHPERRLRYYAQHFDTVEVDSTFYALPRLEVVRKWAERTPEGFLFHVKAYSAFTGHGLEASALPKDLQALLPQKEGHLSQREVPEEVVEEAWNRFFASLAPLREAGKLGYLHFGLPPWTEPKPRSFRYLERLAERTQGYLVAVEFRNPRWYTAWGFVKRELMRLGLAHVSVDAPPHPEAPPRVLEPTREVAVLRCHGRNAETWKGPHQKPYERFNWRYSEEELLDLAEATRTLAAQAERVFVIFNNNYGTQGVEAALGLKRLLGLGKPPWAEGPFS”, the “soluble on expression in E. coli” value is “soluble”.

On to “MPDGQRVTKRSEDSRYFTVQPADTPGMANAQGYLPAHDAAGFDKRLDAIAATVCPNDPRTPDQRRADALGALGRYRDTLDCQCGREDCTAVAERDAVNNAMIHVLAEQSTLDGGNEPGYLPGFGMLPAHMVREVAKTATTKPVTIPKDKAQSGYRPNAELTEFIRWRDLTCRFPGCDAPAMAADIDHTRPLEHHHHHH”, for which the “soluble on expression in E. coli” value is given as “soluble”.

Regarding “MSKILVIAEHRRNDLRPVSLELIGAANGLKKSGEDKVVVAVIGSQADAFVPALSVNGVDELVVVKGSSIDFDPDVFEASVSALIAAHNPSVVLLPHSVDSLGYASSLASKTGYGFATDVYIVEYQGDELVATRGGYNQKVNVEVDFPGKSTVVLTIRPSVFKPLEGAGSPVVSNVDAPSVQSRSQNKDYVEVGGGNDIDITTVDFIMSIGRGIGEETNVEQFRELADEAGATLCCSAPIADAGWLPKSRQVGQSGKVVGSCKLYVAMGISGSIQHMAGMKHVPTIIAVNTDPGASIFTIAKYGIVADIFDIEEELKAQLAA”, the “soluble on expression in E. coli” value is on record as “soluble”.

Regarding “KERPEISLPSDFEHTIHVGFDAVTGEFTGMPEQWARLLQTSNITKSEQKKNPQAVLDVLEFYNSKKTSNSQKYMSFTDKS”, the “soluble on expression in E. coli” value is “soluble”.

As to “MGSDKIHHHHHHMNTPREVTLHFLRTAGHPLTRWALQRQPPSPKQLEEEFLKIPSNFVSPEDLDIPGHASKDRYKTILPNPQSRVCLGRAQSQEDGDYINANYIRGYDGKEKVYIATQGPMPNTVSDFWEMVWQEEVSLIVMLTQLREGKEKCVHYWPTEEETYGPFQIRIQDMKECPEYTVRQLTIQYQEERRSVKHILFSAWPDHQTPESAGPLLRLVAEVEESPETAAHPGPIVVHCSAGIGRTGCFIATRIGCQQLKARGEVDILGIVCQLRLDRGGMIQTAEQYQFLHHTLALYAGQLPEEPSP”, the “soluble on expression in E. coli” value was “soluble”.

With “TERFRLTLAQLNPTVGDLAGNAALARRAWDEARAAGSDMLALTEMFVTGYQTQDLVLRRAFVEEAMATIERLAADCAEGPAIGIGGPCLEDGRLMNAYWVLEGGRVSARVFKHHLPNAEVFDEKRVFSSGEVHGPCRVGPLRIGIPICEDSWHPDVCETLAETGAEILLVPNGSPYHREKLDVRVNLMVTRVVETGLPLVYLNMVGGQDDQVFDGASFVLNPHGRLMAQLPAFEEALVHVDFE”, the “soluble on expression in E. coli” value is “not soluble”.

For the sequence “MGKTLVVGAGGVSHAAVHKMAMNSDIFTEITLASRTKAKCDAIAASVKERTGVTIQTAALDAMDVAATVALIKETGAEILVNLALPYQDLKLMDACLEAGCHYLDTANYEPEDVAKFEYHWQWAYQDKFKEAGLTAILGSGFDPGVTSVFATWLKKHKLATIRQIDVLDA”, the “soluble on expression in E. coli” value was “not soluble”.

Turning to “MAHHHHHHMASYQYFSYIDLYKVNNVNLDPFTEVFNDKFYLRYIYKWPHMNIITKEIDDHTSGYILGKEEGFGQDYHGHVTALSIEEDSRRTGKGVDLMTEFEKITQIIHKGNFVDLFVRVSNNPAINMYKKLGYVINEEINNYYCGNESALDMRKYLDITNS”, the “soluble on expression in E. coli” value is reported as “soluble”.

In the case of “EVKLQESGAGLVQPSQSLSLTCSVTGYSITSGYYWNWIRLFPGNKLEWVGYISNVGDNNYNPSLKDRLSITRDTSKNQFFLKLNSVTTEDTATYYCARSEYYSVTGYAMDYWGQGTTVTVSSAWRHP”, the “soluble on expression in E. coli” value is listed as “soluble”.

Regarding “MRVLISPWGDFRKWKVAKYTFSGKSLESRSTLPIMVDVIRPQETIIIVPDTLSSDFSSQESMWNSVKDEVKEFTNQLGVEDVKIIVVPGSGSFSNGSFFGNPMDAYMFLLYELAKELPLEIKEVHLDVTHGLNYLTFFTVRVVQELLGILSIRKGVVLKTYSSDPFVDGSVRHLRVNLIEEATIDPKPLSEFLEGKFLVNYSMDRVEFGEIARRLKAKELDLGRINSWIASLKHGLPLVFTTMYPQEGEVEGVLEDVVAKFLEGFNVGEGKVVRSISLGKDFGSLAKLYFQLRVLKDLKEMYNLPKDEASVEELLKISEEIFTGRIKHSTKVELDNVANRVEKTEGWVKLSEFFKNANPQVDPRNFFAHAGLEANLVEVKRNGELYLRYTKGKVRWGGKEEKAEKVIREILTSRRWF”, the “soluble on expression in E. coli” value is listed as “soluble”.

Regarding “MRDEKRKAIPAIGFYPQEEISTGTTLIAMEYNGGVVVGTDSRTSAGSFITSRATNKITPITDNMVVCRSGSAADTQAIADIAKYHIDVYTMTENKPVTIYRSSQIFRQFLYNYREQLSASVLVAGWDEELGGQVYAIPIGGFVSRQRSTASGSGSTFVQGFLDSQWRPNLTLEECKAIVKQAVGLATFRDGSSGGVVRLAVINKAGSQFELFRPDKPGFPFVQTPTPHLSFPPHIEQVL”, the “soluble on expression in E. coli” value is recorded as “not soluble”.

Turning to “MKDGEAATGQAASRPKRADARRNEKNLLDAAAAVFVRSGVEAPVRDIAAEAGVGTATIYRHFPTRADLIIGVYRHQVEACAEAGPALLASSPTPYAALAGWIDLFVDFLVTKHGLAAVLQSDSAGFETLHAYFLDRLVPVCTDLLAAATDSGEIDTDVPPLALMRGVGNLCIGAETPNPSYDARQLVRILIAGLRAAD”, the “soluble on expression in E. coli” value is “not soluble”.

On to “MSEKVVFSQLSRKFIDENDATPAEAQQVVYYSLAIGHHLGVIDCLEAALTCPWDEYLAWIATLEAGSEARRKMEGVPKYGEIVIDINHVPMLANAFDKARAAQTSQQKEWSTMLLSMLHDIHQENAIYLMVRRLRD”, for which the “soluble on expression in E. coli” value is reported as “not soluble”.

For “MSVNSIYTDREEIDSEFEDEDFEKEGIATVERAMENNHDLDTALLELNTLRMSMNVTYHEVRIATITALLRRVYHFIATQTLGPKDAVVKVFNQWGLLFKRQAFDEEEYIDLMNIIMEKIVEQSFDKPDLILFSALVSLYDNDIIEEDVIYKWWDNVSTDPRYDEVKKLTVKWVEWLQNADEESSSEEE”, the “soluble on expression in E. coli” value is listed as “soluble”.

For “MGSDKIHHHHHHMLLMPTKDWRWEFNEEYGQLALSLDTQMSFLTAYKTKMLIPDALKGMKFSVEHAKFYIRMLERLPQLLTLSDAMIVQTALNATAAHFLLKPQMPKSWFFDVSDECVYFDLGKVFQLKNNQQSMLVLVVEVGLQSVLVMNLSAACQLSDNKSLGQFDTIKVMHDRLHPLSRAKQIVAA”, the “soluble on expression in E. coli” value was “not soluble”.

With “MIKIDNVKKFYTDKVKIGPLDIEIPKAGFTSLIGPNGAGKSTTLLMIGRLLDMDEGQIQVANMDVSESKSKDLAKVLTILRQENHFVTRLTVRQLVGFGRFPYSKGRLTKEDEVIISKYIDFLDLTNLENRYLDELSGGQRQRAYVAMVLCQETEYVLLDEPLNNLDVARSVQMMEHLRRAANEFGRTILTVMHDINFAAKYSDKICAMKDGQIAAFGTVEEVMDSTLLTDIFETRIEIIKGPYGPIAVY”, the “soluble on expression in E. coli” value is reported as “not soluble”.

With “MTMVQPSGGGASGRGSSSGLADVIDTILDKGLVIDAFVRVSVVGIEILTIDARIVVASVDTYLRFAEATNRLDLTQTGGKGLPEVLQDTTQGVSKSKTKGIAQGALETAGEKLRDIIGEPEEEEEPAPRRRRRREEE”, the “soluble on expression in E. coli” value is “not soluble”.

Consider “MLTLKGKYNEAKVFTDNVDDNTIGQIITLCNQPFAKDSKIRIMPDTHGGKGCVIGTTMTIQDKIVPNLVGVDIGCGLYVVKLKPGKLKMDFDKLDKVIRERVPSGSKTHDKPVDEFDLEGIVAPIHHGWVARSIGTLGGGNHFIEVNQGSDGIYLVIHSGSRVLGKEIAEYHQEVAYKRLDILRKELKLDATAAKKRGNLEMANNLNGEREQVKLDYDLSYVTGVDLKNYLNDMEIAQKFAARNRYVMAQIILKAMKWDKAVVSAFDCVHNYIDIEHNMLRKGATSAQLGEQIIVPLNMREGSILATGKGNADWNYSAPHGAGRMLSRSKAKAQISLESYQAAMKDVWTTSVSKKTIDEAPKAYKSAKQLLADVEDTMEIQEIIKPLYNFKALEHHHHHH”, for which the “soluble on expression in E. coli” value is given as “soluble”.

Consider “MSLNVLSVSSEIYPLIKTGGLADVVGALPIALEAHGVRTRTLIPGYPAVKAAVTDPVKCFEFTDLLGEKADLLEVQHERLDLLILDAPAYYERSGGPYLGQTGKDYPDNWKRFAALSLAAARIGAGVLPGWRPDMVHAHDWQAAMTPVYMRYAETPEIPSLLTIHNIAFQGQFGANIFSKLALPAHAFGMEGIEYYNDVSFLKGGLQTATALSTVSPSYAEEILTAEFGMGLEGVIGSRAHVLHGIVNGIDADVWNPATDHLIHDNYSAANLKNRALNKKAVAEHFRIDDDGSPLFCVISRLTWQKGIDLMAEAVDEIVSLGGRLVVLGAGDVALEGALLAAASRHHGRVGVAIGYNEPLSHLMQAGCDAIIIPSRFEPCGLTQLYALRYGCIPVVARTGGLADTVIDANHAALASKAATGVQFSPVTLDGLKQAIRRTVRYYHDPKLWTQMQKLGMKSDVSWEKSAGLYAALYSQLISKGHEGHHHHHH”, for which the “soluble on expression in E. coli” value is “soluble”.

Turning to “DSTITGASEKAEDAFKASYPAVYRYLEGYKDLLTKRNQAETGIRYEWYALQRWGANYWEDFSKPKIMWKRIGSILRFCYNENGALGLDSTCFAAGKG”, the “soluble on expression in E. coli” value was “not soluble”.

With “MAHHHHHHMKGCTLQNNFNHTAPFCGEWNSTILSGSLPPNSGGSSCVINLIKDEVHTVNGNTPRGITITSDTTKDGVFCTMDANGCPFAVDREIERGVNRMKAITKHGTCHMAYATSGGRTCDDSYDRSTRNYHDEEDEEWYEEDEEEGEDSPRIHIIDEHRDGRLLGNILCGMSRAGERISQGLDMLSPLEKRKSGRCAAIESVDYNNTRRRGGGGAETQKGLFQNYYNTGRGRWASRNHCRTNGWDESVSVESCFSHTYNQQWRGREPDYAMMEAHAALDGRSFCEGTYLSSTKLSERKKRVALSGSRVCRDAGKVIVQDNCPYDHKKRHKGRRQCQSPFGEEKIRANDPFDSPKNAITHIKKAGSAGSDDNDSCNPHSKSPGLTGSGSRCSQKETAGRSAEQRNGSGKAASPKTSPHKDELKEKESTVVKKD”, the “soluble on expression in E. coli” value was “not soluble”.

(Values after the DeepSol protein solubility set.)
